Experimental data as given in doi:10.1101/804138.

Experiments:
[1] = molecular target: His6-GapR1-89 (full-length WT GapR), purified (Caulobacter crescentus); test: SEC + cross-linking
[2] = molecular target: His6-GapR1-69 (truncated protein lacking the entire Helix 3) (Caulobacter crescentus); test: SEC + cross-linking
[3] = molecular target: His6-GapR1-76 (truncated protein lacking only the hydrophobic patch of Helix 3) (Caulobacter crescentus); test: SEC + cross-linking
[4] = molecular target: untagged GapR1-89 (Caulobacter crescentus)

His6-GapR1-89 (full-length WT GapR), purified (natural protein)
stoichiometry N [1]: 4

His6-GapR1-69 (truncated protein lacking the entire Helix 3) (domain or fragment)
stoichiometry N [2]: 2

His6-GapR1-76 (truncated protein lacking only the hydrophobic patch of Helix 3) (domain or fragment)
stoichiometry N [3]: 2

untagged GapR1-89 (natural protein)
stoichiometry N [4]: 4
